Source: the DeepSol protein solubility set

Test: soluble on expression in E. coli; label from the status in PepcDB or PDB records

Row | Sequence | soluble on expression in E. coli
1 | MCGRFAQAQTREEYLAYLADEADRNIAYDPQPIGRYNVAPGTKVLLLSERDEQLHLDPVIWGYAPGWWDKAPLINARVATAASSRMFKPLWQHGRAICFADRWFEWKKEGDKKQPYFIHRKDGKPIFMAAIGSTPFERGDEAEGFLIVTSAADKGLVDIHDRRPLALTPETARVWMRQFLEPHSKSITYRVIPALTRPMMRKDTNPCQLEHHHHHH | not soluble
2 | MKTLILFSTRDGQTREIASYLASELKELGIQADVANVHRIEEPQWENYDRVVIGASIRYGHYHSAFQEFVKKHATRLNSMPSAFYSVNLVARKPEKRTPQTNSYARKFLMNSQWRPDRCAVIAGALRYPRYRWYDRFMIKLIMKMSGGETDTRKEVVYTDWEQVANFAREIAHLTDKPTLK | not soluble
3 | MGSDKIHHHHHHMESQNVSFRVAREDLVTAVAWVARNLPTKPTQPVLRAMLITADDEGLELAGYDYDVSTRVRLSAEVSQPGRIAVAGKLLSEITGSLPNKPVDFRIDGSKAFVTCGSSRFELPLIPLDDYPMLPKLPAGTGSINAKLFTEAVSQVASAAGKDDSLPMLTGVSMEIVGNQINLAATDRFRLALRTFEWEANDPELNVKLLIPARTLLDNARSLDSGLNDSIDIAVGTGDQVGREGLFGVHTDNRETTTRLLDADFPNIAPLLPKEHTAIASVEIAPLVDAIRRVSLVAERNAQIVLHFSEGQVILTAGATEAGHAEETLPCAFTGKELTIAFNPGYLKDGLSVVPTSRAVFGFTEPSRPAIMIPEPEEMPSANENGIFQTPDTYFTYLLMPVRLPG | not soluble
4 | LDNEMLTLDIVASDLLTLQALNAARLKEAGAVDATFVTKAINEQPLNLGQGIWLSDSAEGNLRSAIAVSRAANAFDVDGETAAMLVSVAMNDDQPIAVLKRLADLLLDNKADRLLKADAATLLALLTSDDAPTDDV | not soluble
5 | MGLALQHSHRWDLSPREAANLQTRLRPLVLAEDALPDEIRTVAGVDVGFEDHGRITRAAVAVLDFPSLRPSDQAIVRRPTRFPYVPGLLSFRELPALLEALERLNLLPGLILVDGHGYAHPRRFGIACHLGVLTGIPTIGVGKTRLVGTHGELAEDRGSWIPLIDGDETVGAVVRTRRGVQPVYVSVGHRLSLPTAVDWVLRCTPRYRLPETTRQAHRLASALEHHHHHH | not soluble
6 | MYQASCLFYFMTPVFFLLSTYPRNLLIGDSSTAFTKELIAKMNEVTNSAESTSSKRPGRPRKDGHDEKIIDATLRLIDSNRPVTVNAVVKESGVSRAAVYRRWPGLVDLVAEALDAGRAPVEIDTSGDIKETLIDGLFTNQAKTTGVSYPRQRFRKRLELVMSDQELQLAAAALEHHHHHH | not soluble
7 | MPNMGIEKLYVSQQLTDSAAGMTFTKPQYYKYVQELSLKPKVNSASAYAENRKVDQDTQFDSCDVSINLFQMTSSQRAFMLGQSLAGGGGAIGALNDKAPWITLLYKAPIKVDDTIYYRYGVIYKTQFQPPDDDYKTTEGKPDFSQVPKISGSAQPTEWSFKDGKLEKHPWEWHVDTCDPNCPENIDDTWFNSVSIPSLVTYGSLSLSASSPKDGATGISLDTKPSLTFNNPIMNATSILLYNVSDGATVNTTTSSDSSGKIITITPSTNLVANKNYVLVVQDVTDLYGQTLDTQLIRFTTATAASLEHHHHHH | soluble
8 | MTKITVVGAGSWGTALAMVLADNGHDVRIWGNRSELMDEINTKHENSRYLPGITLPSTIVAYSSLEEALVDVNVVLIVVPTKAYREVLQDMKKYVAGPTTWIHASKGIEPGTSKRISEVIEEEIPEDLIKDVVVLSGPSHAEEVGLRQATTVTSAAKRMEAAEEVQDLFMNSYFRVYTNPDIVGVELGGALKNIIALAAGITDGLGLGDNAKAALMTRGLTEIARLGRKMGGNPLTFAGLTGMGDLIVTCTSVHSRNWRAGNMLGKGHSLEEVLESMGMVVEGVRTTKAAHELAEKMEVEMPITAALYDVLFNGNNVKDAVGSLMGRVRKHEVEAIPDLL | not soluble
9 | KKHTGYVGLKNQGATCYMNSLLQTLFFTNQLRKAVYMMPTEGDDSSKSVPLALQRVFYELQHSDKPVGTKKLTKSFGWETLDSFMQHDVQELCRVLLDNVENKMKGTCVEGTIPKLFRGKMVSYIQCKEVDYRSDRREDYYDIQLSIKGKKNIFESFVDYVAVEQLDGDNKYDAGEHGLQEAEKGVKFLTLPPVLHLQLMRFMYDPQTDQNIKINDRFEFPEQLPLDEFLQKTDPKDPANYILHAVLVHSGDNHGGHYVVYLNPKGDGKWCKFDDDVVSRCTKEEAIEHNYGGHDDDLSVRHCTNAYMLVYIRESKLSEVLQAVTDHDIPQQLVERLQEEKRIEAQKRKERQE | soluble
10 | MDSVVSDVSDLVEPDEELKAWQTDRTRAPIATKIVVAGGFGAGKTTLVTAVSEITPLQTEALMTQASEDTDDLTGTPDKLTTTVAMDFGRITLDDDLVLYLFGTPGQQRFWFMWDDLVRGAIGAVVLADTRRLSDCFPALDYFESCGLPYVVAVNHFDGSEKFEPEDVREALTVPAHIPVMIMDARRRISVIETLLALVGHALEVSPELEHHHHHH | soluble
11 | MSVIKIEKALKLDKVIFVDVRTEGEYEEDHILNAINMPLFKNNEHNEVGTIYKMQGKHEAIQKGFDYVSYKLKDIYLQAAELALNYDNIVIYCARGGMRSGSIVNLLSSLGVNVYQLEGGYKAYRNFVLEYLRHVMDTKNFVSVHGLTGTGKTDLLHLLDENGIDVLDLEGIAKNSGSTFGFITFDKKPPSQKNFETKLFESIFFSKENYIFVESESKRVGSVTVPNEIFEAMTREGHHILLECDIENRVDRLCRDYIYDKDEGNILILKECINKFRKRLGNKVVDDYIDLLESGEYKELVKRYLLEYYDPLYMHSVEKYKYSKIINFNDTQKALEDVIDLYESILEGESEC | not soluble
12 | MFNCLGTSNRDFVEGASGATWIDLVLEGGSCVTVMAPEKPTLDFKVMKMEATELATVRKYCYEATLDTLSTVARCPTTGEAHNTKRSDPTFVCKRDVVDRGWGNGCGLFGKGSIDTCAKFTCKNKATGKTILRENIKYEVAIFVHGSTDSTSHGNYFEQIGKNQAARFTISPQAPSFTANMGEYGTVTIDCEARSGINTEDYYVFTVKEKSWLVNRDWFHDLNLPWTSPATTDWRNRETLVEFEEPHATKQTVVALGSQEGALHTALAGAIPATVSSSTLTLQSGHLKCRAKLDKVKIKGTTYGMCDSAFTFSKNPTDTGHGTVIVELQYTGSNGPCRVPISVTANLMDLTPVGRLVTVNPFISTGGANNKVMIEVEPPFGDSYIVVGRGTTQINYHWHKEGSSIGKA | not soluble
13 | MSLITLTTDFGLKGPYVGEMKVAMLRINPNAKIVDVTHSVTRHSILEGSFVMEQVVKYSPKGTVHVGVIDPGVGTERRAIVIEGDQYLVVPDNGLATLPLKHIKVKSVYEIIPDKIRKFTGWEISSTFHGRDIFGPAGALIEKGIHPEEFGREIPVDSIVKLNVEPRKEGDVWILKVIYIDDFGNVILNLENYEKPRTVELLDFNLRLPYLETYGLVEKGEMLALPGSHDYLEIAVNMGSAAERLNVKVGDELRVRLLEGGSHHHHHH | soluble
14 | MMKTFHWKVDPDMGVDSEPQVSVVRFGDGYEQRRASGINNDLKKYSVTIRVDREDGPGLEGFLSQHNGVKAFLWTPPYGYRQIKVVCRKWSVKAGLLKTTFTATFEQVIS | not soluble
15 | MDPFKKPVRMLPIKGAPISRPISVFTFDVFNPPDDSDGSSTPDSVFEAETSPARTPPTPALILPYDYVSSEDSDDEAQEHADNRDTNDQVSESSTSEDSDSESESSCDDTQQTFVDDESTSSSGEEDRDDPFESNDQGAQGGSTSESEDDLPAILRAARETQSDSSSDSSGNSHKKRRVQEEESSRILKTPAPISGNGKYNWPWLD | soluble
16 | MSSQKSSHHKADSKMEQDNNRKAWISQPSGLNFVWGGDSRYWVIPKEPRMPAELKMVSWLEVTGSFDKIEPGKTYRIGFKISFKPDATGWDKAPVFMSAKIGKKGKTVWKRIKSVSQNFGILKGGSEPVNIPDESDGLFEILVSPTALNQDTKLQFGLYEVWTGRWKTGLLIHEAFVQEV | soluble
17 | MGSSHHHHHHSSGLVPRGSHMDFEEDYDAEFDDNQEGQLETPFPSVAGADDGDNDNDDSVAENMKKKQKREAVVDDGSENAFGIPEFTRKDKTLEEILEMMDSTPPIIPDAVIDYYLTKNGFNVADVRVKRLLALATQKFVSDIAKDAYEYSRIRSSVAVSNANNSQARARQLLQGQQQPGVQQISQQQHQQNEKTTASKVVLTVNDLSSAVAEYGLNIGRPDFYR | soluble
18 | MEMSLEEFKTMFKTVMKKEFEDELHRITEPGKSKMAIERYIQGINLLDKKCILDNDENHNVLFKFAPIDQDFAHSSTNLSTPSPLEEESARENNHEAQELDITERIARMNLIGGSEFQMQYSSFLTAVSTKPSTDASLKKEARRLAEIWWAKNLRFFPQTMYVLQKLDQKNPDGFNYTDFEEEVQKVIPRSWIQNHHSFTLLSLLNEESLYVKFNLIMPSDSENMNRVKVNQVIKFLGFHEIGDCEFSMIYQYVSSKSASESTYSIHKFMCEDFPGWETQYNNEKKSMDRIFEIIIQEQKLFWTEYDYHTYKRHAYKIAVPMVFSLNIVDKAVGVRSDAR | not soluble
19 | MDEFIIKRAKELQGYIVEKRRDFHMYPELKYEEERTSKIVEEELKKLGYEVVRTAKTGVIGILKGKEDGKTVALRADMDALPIQEENDVPYKSRVPGKMHACGHDAHTAMLLGAAKILAEMKDELQGTVKLIFQPAEEGGLGAKKIVEEGHLDDVDAIFGIHVWAELPSGIIGIKSGPLLASADAFRVLIKGKGGHGAAPHLSIDPIALAVDLVNAYQKIISREVDPLQPAVLSVTSIKAGTTFNVIPESAEILGTIRTFDEEVRDYIVRRMKEITENFANGMRCEGKFELTIEHIPPTINNEKLANFARDVLKVLGEIREPKPTMGAEDFAFYTTKAPGLFIFLGIRNEEKGIIYPHHHPKFNVDEDILWMGAAIHSLLTYHYLSL | soluble
20 | GPGSMDKDVDVTKLTAQALQVHIERCERLMKQPALLSRLPDGGNGIRERYSKYLAEVERRKTNGAASALTAQKDGDGEVRDEDEAQSRPAAVEGCQDEKTVGDTTTAEVTYEEEARAIGERHRHFRVPVEEIVRRTFGGSLCDSELQRIINDVPPGFFLTYEETMSMERKLMEEERAETLERLRRQRSAGGVQ | soluble
21 | MGSSHHHHHHSSGLVPRGSAKSFSSQKAYKIVLAGDAAVGKSSFLMRLCKNEFRENISATLGVDFQMKTLIVDGERTVLQLWDTAGQERFRSIAKSYFRKADGVLLLYDVTCEKSFLNIREWVDMIEDAAHETVPIMLVGNKADIRDTAATEGQKCVPGHFGEKLAMTYGALFCETSAKDGSNIVEAVLHLAREVKKRT | soluble
22 | MSLYDNDLWFATINLPYRQKLELLRIYKTSDEILYNFKNSELIQKYKFDIEKINYIKDEMKKSGMKIVFWNDDDYPKVLKNYDDMPYGLFYMGNIKKLNELNYNVAIVGSRRCTQYGKDITTIISREISINGIGIISGMARGIDTYAHKICLENNGYTCAVLGCGADVIYPKENKNLYCQIIRNGCIISQYKPNTKPLPYNFPIRNKIISGLSNLVLVTEADIKSGSIITASSALEQGKDVGAVPGSVFSKMSRGTNKLIQDGAHVIKDIDDVFGILNFQKINFKKIRNNSSYSSMPENQRQIYDLVSDKPIHVDDIKRCLNIDIQELYELLFEMQLKNKILCLSGSYYVRVNDCLEGHHHHHH | soluble
